Test results: patent US12295987B2, “Method of using a GIP/GLP1 co-agonist for diabetes” (Eli Lilly and Company, priority 2018, dated 2025)

Biological target: T1, human gastric inhibitory peptide receptor (hGIPR) (Homo sapiens, UniProt P48546)
T1 construct: expressed in transfected cells; host or cells: HEK293
T1 sequence (P48546 22-466): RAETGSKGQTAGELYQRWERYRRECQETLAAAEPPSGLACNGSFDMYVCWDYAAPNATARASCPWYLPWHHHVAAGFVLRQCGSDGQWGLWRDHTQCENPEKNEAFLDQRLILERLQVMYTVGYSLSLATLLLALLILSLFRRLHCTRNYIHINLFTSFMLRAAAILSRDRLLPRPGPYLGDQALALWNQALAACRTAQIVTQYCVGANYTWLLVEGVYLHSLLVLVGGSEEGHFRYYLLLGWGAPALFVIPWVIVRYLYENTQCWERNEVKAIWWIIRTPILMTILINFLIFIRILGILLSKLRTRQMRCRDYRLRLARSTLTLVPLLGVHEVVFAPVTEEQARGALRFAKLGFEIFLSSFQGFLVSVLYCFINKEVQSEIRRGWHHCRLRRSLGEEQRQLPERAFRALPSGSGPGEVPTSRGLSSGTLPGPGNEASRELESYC
Assay: cAMP pharmacological functional assay in presence of 0.1% casein, hGIPR
Format: cell-based
Conditions: ratio of hGIPR to hGLP1R cAMP EC50 ratios

Substance | [hGIPR/hGLP1R] EC50 Ratio
Y-Aib-EGT-αMeF(2F)-TSDYSI-αMeL-LDEK((2-[2-(2-Amino-ethoxy)-ethoxy]-acetyl)2-(γGlu)-CO—(CH2)16—CO2H)AQ-Aib-EFI-(D-Glu)-YLIEGGPSSGAPPPS-NH2 (YXEGTXTSDYSIXLDEKAQXEFIXYLIEGGPSSGAPPPS; Aib, αMeF(2F), αMeL, D-Glu; lipidated K; amide; (2)..(2) Xaa at position 2 is Aib; (6)..(6) Xaa at position 6 is alpha-methyl-Phe(2F); (13)..(13) Xaa at position 13 is alpha-methyl-Leu; MOD_RES (17)..(17) Lys at position 17 is chemically modified by conjugation of the epsilon-amino group of the Lys side chain with (2-[2-(2-amino-ethoxy)-ethoxy]-acetyl)2-(gamma-Glu)-CO-(CH2)16- CO2H; (20)..(20) Xaa at position 20 is Aib; (24)..(24) Xaa at positi) [Peptide 221] | 5.66
Y-Aib-EGT-αMeF(2F)-TSDYSI-αMeL-LDEK((2-[2-(2-Amino-ethoxy)-ethoxy]-acetyl)2-(γGlu)-CO—(CH2)16—CO2H)AQ-Aib-EFIEYLIEGG-NH2 (YXEGTXTSDYSIXLDEKAQXEFIEYLIEGG; Aib, αMe residues, C18 diacid lipidation, C-amide; (2)..(2) Xaa at position 2 is Aib; (6)..(6) Xaa at position 6 is alpha-methyl-Phe(2F); (13)..(13) Xaa at position 13 is alpha-methyl-Leu; MOD_RES (17)..(17) Lys at position 17 is chemically modified by conjugation of the epsilon-amino group of the Lys side chain with (2-[2-(2-amino-ethoxy)-ethoxy]-acetyl)2-(gamma-Glu)-CO-(CH2)16- CO2H; (20)..(20) Xaa at position 20 is Aib; MOD_RES (30)..(30) Gly a) [Peptide 104] | 2.66
Y-Aib-EGT-αMeF(2F)-TSDYSI-αMeL-LDEK((2-[2-(2-Amino-ethoxy)-ethoxy]-acetyl)2-(γGlu)-CO—(CH2)18—CO2H)AQ-Aib-EFI-(D-Glu)--αMeY-LIEGGPSSGAPPPS-NH2 (YXEGTXTSDYSIXLDEKAQXEFIXXLIEGGPSSGAPPPS; Aib, αMeF(2F), αMeL, D-Glu, αMeY; lipidated K; amide; (2)..(2) Xaa at position 2 is Aib; (6)..(6) Xaa at position 6 is alpha-methyl-Phe(2F); (13)..(13) Xaa at position 13 is alpha-methyl-Leu; MOD_RES (17)..(17) Lys at position 17 is chemically modified by conjugation of the epsilon-amino group of the Lys side chain with (2-[2-(2-amino-ethoxy)-ethoxy]-acetyl)2-(gamma-Glu)-CO-(CH2)18- CO2H; (20)..(20) Xaa at position 20 is Aib; (24)..(24) Xaa at positi) [Peptide 222] | 3.77
Y-Aib-EGT-αMeF(2F)-TSDYSI-αMeL-LDEK((2-[2-(2-Amino-ethoxy)-ethoxy]-acetyl)2-(γGlu)-CO—(CH2)18—CO2H)AQ-Aib-EFI-(D-Glu)-YLIEGGPSSGAPPPS-NH2 (YXEGTXTSDYSIXLDEKAQXEFIXYLIEGGPSSGAPPPS; Aib, alphaMe residues, C20 diacid lipidation, C-amide; (2)..(2) Xaa at position 2 is Aib; (6)..(6) Xaa at position 6 is alpha-MeF(2F); (13)..(13) Xaa at position 13 is alpha-MeL; MOD_RES (17)..(17) K at position 17 is chemically modified by conjugation of the epsilon-amino group of the K side chain with (2-[2-(2-amino-ethoxy)-ethoxy]-acetyl)2-(gamma-Glu)-CO-(CH2)18- CO2H; (20)..(20) Xaa at position 20 is Aib; (24)..(24) Xaa at position 24 is D-Glu; MO) [Peptide 1] | 4.15
Y-Aib-EGT-αMeF(2F)-TSDYSI-αMeL-LDEK((2-[2-(2-Amino-ethoxy)-ethoxy]-acetyl)2-(γGlu)-CO—(CH2)18—CO2H)AQ-Aib-EFI-Aad-YLIEGGPSSGAPPPS-NH2 (YXEGTXTSDYSIXLDEKAQXEFIXYLIEGGPSSGAPPPS; Aib, Aad, αMeF(2F), αMeL; acylated lysine C20 diacid; amide; (2)..(2) Xaa at position 2 is Aib; (6)..(6) Xaa at position 6 is alpha-methyl-Phe(2F); (13)..(13) Xaa at position 13 is alpha-methyl-Leu; MOD_RES (17)..(17) Lys at position 17 is chemically modified by conjugation of the epsilon-amino group of the Lys side chain with (2-[2-(2-amino-ethoxy)-ethoxy]-acetyl)2-(gamma-Glu)-CO-(CH2)18- CO2H; (20)..(20) Xaa at position 20 is Aib; (24)..(24) Xaa at positi) [Peptide 147] | 3.66
Y-Aib-EGT-αMeF(2F)-TSDYSI-αMeL-LDEK((2-[2-(2-Amino-ethoxy)-ethoxy]-acetyl)2-(γGlu)-CO—(CH2)18—CO2H)AQ-Aib-EFI-Aib-YLIEGGPSSGAPPPS-NH2 (YXEGTXTSDYSIXLDEKAQXEFIXYLIEGGPSSGAPPPS; Aib, αMeF(2F), αMeL; acylated lysine C20 diacid; amide; (2)..(2) Xaa at position 2 is Aib; (6)..(6) Xaa at position 6 is alpha-methyl-Phe(2F); (13)..(13) Xaa at position 13 is alpha-methyl-Leu; MOD_RES (17)..(17) Lys at position 17 is chemically modified by conjugation of the epsilon-amino group of the Lys side chain with (2-[2-(2-amino-ethoxy)-ethoxy]-acetyl)2-(gamma-Glu)-CO-(CH2)18- CO2H; (20)..(20) Xaa at position 20 is Aib; (24)..(24) Xaa at positi) [Peptide 152] | 5.31
Y-Aib-EGT-αMeF(2F)-TSDYSI-αMeL-LDEK((2-[2-(2-Amino-ethoxy)-ethoxy]-acetyl)2-(γGlu)-CO—(CH2)18—CO2H)AQ-Aib-EFIAYLIEGGPSSGAPPPS-NH2 (YXEGTXTSDYSIXLDEKAQXEFIAYLIEGGPSSGAPPPS; Aib, αMeF(2F), αMeL; acylated lysine C20 diacid; amide; (2)..(2) Xaa at position 2 is Aib; (6)..(6) Xaa at position 6 is alpha-methyl-Phe(2F); (13)..(13) Xaa at position 13 is alpha-methyl-Leu; MOD_RES (17)..(17) Lys at position 17 is chemically modified by conjugation of the epsilon-amino group of the Lys side chain with (2-[2-(2-amino-ethoxy)-ethoxy]-acetyl)2-(gamma-Glu)-CO-(CH2)18- CO2H; (20)..(20) Xaa at position 20 is Aib; MOD_RES (39)..(39) Ser a) [Peptide 148] | 3.14
Y-Aib-EGT-αMeF(2F)-TSDYSI-αMeL-LDEK((2-[2-(2-Amino-ethoxy)-ethoxy]-acetyl)2-(γGlu)-CO—(CH2)18—CO2H)AQ-Aib-EFIE-αMeY-LIEGGPSSGAPPPS-NH2 (YXEGTXTSDYSIXLDEKAQXEFIEXLIEGGPSSGAPPPS; Aib, αMeF(2F), αMeL, αMeY; lipidated K; amide; (2)..(2) Xaa at position 2 is Aib; (6)..(6) Xaa at position 6 is alpha-methyl-Phe(2F); (13)..(13) Xaa at position 13 is alpha-methyl-Leu; MOD_RES (17)..(17) Lys at position 17 is chemically modified by conjugation of the epsilon-amino group of the Lys side chain with (2-[2-(2-amino-ethoxy)-ethoxy]-acetyl)2-(gamma-Glu)-CO-(CH2)18- CO2H; (20)..(20) Xaa at position 20 is Aib; (25)..(25) Xaa at positi) [Peptide 223] | 3.05
Y-Aib-EGT-αMeF(2F)-TSDYSI-αMeL-LDEK((2-[2-(2-Amino-ethoxy)-ethoxy]-acetyl)2-(γGlu)-CO—(CH2)18—CO2H)AQ-Aib-EFIEYLIEGG-NH2 (YXEGTXTSDYSIXLDEKAQXEFIEYLIEGG; Aib, αMe residues, C20 diacid lipidation, C-amide; (2)..(2) Xaa at position 2 is Aib; (6)..(6) Xaa at position 6 is alpha-methyl-Phe(2F); (13)..(13) Xaa at position 13 is alpha-methyl-Leu; MOD_RES (17)..(17) Lys at position 17 is chemically modified by conjugation of the epsilon-amino group of the Lys side chain with (2-[2-(2-amino-ethoxy)-ethoxy]-acetyl)2-(gamma-Glu)-CO-(CH2)18- CO2H; (20)..(20) Xaa at position 20 is Aib; MOD_RES (30)..(30) Gly a) [Peptide 103] | 3.07
